The values below come from US20030206891A1 (ARIAD GENE THERAPEUTICS, published 2003).

For the experiment, the target named is T1, Lex-FKBP (human, UniProt P0A7C2 1-87; P62942 2-108).
T1 construct: range 1-87;range 2-108; Translated in vitro in reticulocyte lysate; also called L87G6FKBP; p19BL87G6FKBP
The experiment can be described thus: gel mobility shift with in vitro translated proteins and LexCon DNA probe, rapamycin added.

B1: Lex-FRAP (other, UniProt P0A7C2 1-87, looked up, not shown: small tags and cut ends)
chain: MKALTARQQEVFDLIRDHISQTGMPPTRAEIAQRLGFRSPNAAEEHLKALARKGVIEIVSGASRGIRLLQEEEEGLPLVGRVAAGEPEMWHEGLEEASRLYFGERNVKGMFEVLEPLHAMMERGPQTLKETSFNQAYGRDLMEAQEWCRKYMKSGNVKDLTQAWDLYYHVFRRISK
notes: range 1-87;range 2025-2113; Translated in vitro in reticulocyte lysate; Junction residues from the SpeI-XbaI ligation are not spelled out; also called L87FRB; p19BL87FRB
Turning to B1, the binding result was “binds”.
